In publication PMC2793518, “Fiber Mediated Receptor Masking in Non-Infected Bystander Cells Restricts Adenovirus Cell Killing Effect but Promotes Adenovirus Host Co-Existence” (PLoS ONE, 2009):

Target: T1, CAR on A549 cells (human (endogenous in A549), UniProt P78310 20-365)
T1 sequence: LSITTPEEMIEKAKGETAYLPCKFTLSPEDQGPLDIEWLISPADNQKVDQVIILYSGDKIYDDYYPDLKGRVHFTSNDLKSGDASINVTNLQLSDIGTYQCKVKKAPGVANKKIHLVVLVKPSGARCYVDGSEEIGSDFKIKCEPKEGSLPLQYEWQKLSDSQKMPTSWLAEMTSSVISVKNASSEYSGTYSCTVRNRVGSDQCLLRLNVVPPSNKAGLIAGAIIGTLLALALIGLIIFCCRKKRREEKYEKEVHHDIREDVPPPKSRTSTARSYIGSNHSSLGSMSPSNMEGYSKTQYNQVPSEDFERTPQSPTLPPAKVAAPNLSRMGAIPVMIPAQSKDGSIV
Assay: cell-based or functional assay

B1: Ad5 fiber (free trimeric fiber molecules released from Ad5-CRAD or WT Ad5 infected cells) (natural protein)
chain: MKRARPSEDTFNPVYPYDTETGPPTVPFLTPPFVSPNGFQESPPGVLSLRLSEPLVTSNGMLALKMGNGLSLDEAGNLTSQNVTTVSPPLKKTKSNINLEISAPLTVTSEALTVAAAAPLMVAGNTLTMQSQAPLTVHDSKLSIATQGPLTVSEGKLALQTSGPLTTTDSSTLTITASPPLTTATGSLGIDLKEPIYTQNGKLGLKYGAPLHVTDDLNTLTVATGPGVTINNTSLQTKVTGALGFDSQGNMQLNVAGGLRIDSQNRRLILDVSYPFDAQNQLNLRLGQGPLFINSAHNLDINYNKGLYLFTASNNSKKLEVNLSTAKGLMFDATAIAINAGDGLEFGSPNAPNTNPLKTKIGHGLEFDSNKAMVPKLGTGLSFDSTGAITVGNKNNDKLTLWTTPAPSPNCRLNAEKDAKLTLVLTKCGSQILATVSVLAVKGSLAPISGTVQSAHLIIRFDENGVLLNNSFLDPEYWNFRNGDLTEGTAYTNAVGFMPNLSAYPKSHGKTAKSNIVSQVYLNGDKTKPVTLTITLNGTQETGDTTPSAYSMSFSWDWSGHNYINEIFATSSYTFSYIAQE
Question: How did the “percent GFP+ cells 24 hr after super-infection with Ad5-PGK-GFP (MOI 10) of A549 cultures infected 6 days before with Ad5-CRAD (MOI 1.0), relative to cultures without prior Ad5-CRAD infection” value turn out when B1 was run?
Answer: 60 % of control
